The subject of data set [1] is tau 4R2N (Homo sapiens), P10636-8. The experiment in a line: EMSA. As to conditions: Hill coefficient 2.8; 26 nM tRNA, 0.5 mM MgCl2, 0.5 mM EDTA, 37 C; native tRNA modifications likely, not described; EMSA: 100 mM sodium acetate pH 7.0, 0.5 mM EDTA, 0.5 mM MgCl2, 0.01% IGEPAL CA-630, RNase inhibitor, 37 C 10 min, TBE 8% gel; ITC: 20 mM ammonium acetate pH 7 …. (Mobility shift assays separate free from complexed probe on a gel.)

Data set [2] has the same test system. Nature of the data set: ITC. As to conditions: n = 0.52 tRNA per tau; 20 mM ammonium acetate pH 7; EMSA: 100 mM sodium acetate pH 7.0, 0.5 mM EDTA, 0.5 mM MgCl2, 0.01% IGEPAL CA-630, RNase inhibitor, 37 C 10 min, TBE 8% gel; ITC: 20 mM ammonium acetate pH 7 ….
Data set [3] has as its system tau K18 (Homo sapiens). The experiment in a line: ITC. The settings on record: n = 0.49 tRNA per tau; 20 mM ammonium acetate pH 7; EMSA: 100 mM sodium acetate pH 7.0, 0.5 mM EDTA, 0.5 mM MgCl2, 0.01% IGEPAL CA-630, RNase inhibitor, 37 C 10 min, TBE 8% gel; ITC: 20 mM ammonium acetate pH 7 ….

tau 4R2N (Homo sapiens), P10636-8, sequence (P10636 other isoform, or with tags, fused parts or gaps): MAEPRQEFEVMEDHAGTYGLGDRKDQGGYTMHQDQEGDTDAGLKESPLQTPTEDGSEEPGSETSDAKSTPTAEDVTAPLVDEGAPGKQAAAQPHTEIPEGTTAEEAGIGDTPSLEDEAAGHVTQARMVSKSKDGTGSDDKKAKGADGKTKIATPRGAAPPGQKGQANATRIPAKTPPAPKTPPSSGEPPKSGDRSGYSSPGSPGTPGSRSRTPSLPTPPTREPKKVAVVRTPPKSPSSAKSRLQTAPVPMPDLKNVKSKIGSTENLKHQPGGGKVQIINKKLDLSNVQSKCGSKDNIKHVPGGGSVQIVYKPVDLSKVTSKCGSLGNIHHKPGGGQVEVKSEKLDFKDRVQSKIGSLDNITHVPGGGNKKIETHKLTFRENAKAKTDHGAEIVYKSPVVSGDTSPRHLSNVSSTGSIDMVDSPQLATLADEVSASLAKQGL

In the case of tRNALys, unacetylated, the dissociation constant Kd (usually the equilibrium constant for the complex coming apart) in data set [1] turned out to be 460 nM.
Consider yeast tRNA (bulk), for which the Kd in data set [2] is 735 nM; in data set [3] it was 372 nM.

Values taken from paper PMC5500003.
